Experimental data: patent US20260242478A1 (published 2026)
Where no end group is shown, it is not given here.

B1: Phage-3346 (peptide)
peptide: SEYRCVPNWMCSGF
modifications: cysteine pairing not given here; also: fused to pIII of bacteriophage
notes: not shown: fused to pIII of the bacteriophage
B2: Phage-3337 (peptide)
peptide: LEVLCKPTWMCVGF
modifications: cysteine pairing not given here; also: fused to pIII of bacteriophage
notes: as for B1
B3: Phage-3360 (Peptide-180 library peptide) (peptide)
peptide: FPVRCVPEWMCSGF
notes: tested as crude clonal phage supernatant
B4: Phage-3336 (peptide)
peptide: IVDICKPSWMCEGF
modifications: cysteine pairing not given here; also: fused to pIII of bacteriophage
notes: as for B1
B5: Phage-3356 (Peptide-180 library peptide) (peptide)
peptide: LSWHCIPEWMCAGF
modifications: cysteine pairing not given here; also: fused to pIII of bacteriophage
notes: as for B3
B6: Phage-3339 (peptide)
peptide: TASMCKPPWMCLGF
modifications: cysteine pairing not given here; also: fused to pIII of bacteriophage
notes: as for B1
B7: Phage-3341 (peptide)
peptide: QYPVCKPAWMCEGF
modifications: cysteine pairing not given here; also: fused to pIII of bacteriophage
notes: as for B1
B8: Phage-3348 (peptide)
peptide: YEQRCVPVWMCEGF
notes: as for B1
B9: Phage-3345 (peptide)
peptide: GELKCIPPWMCEGF
modifications: cysteine pairing not given here; also: fused to pIII of bacteriophage
notes: as for B1
B10: Phage-3349 (peptide)
peptide: HIKECTPRWMCVGF
modifications: cysteine pairing not given here; also: fused to pIII of bacteriophage
notes: as for B1
B11: Phage-3351 (Peptide-180 library peptide) (peptide)
peptide: VRPMCEPVWMCMGF
notes: as for B3
B12: Phage-3352 (Peptide-180 library peptide) (peptide)
peptide: VDHVCRPIWMCIGF
notes: as for B3
B13: Phage-3363 (Peptide-180 library peptide) (peptide)
peptide: EDVLCKPLWMCFGF
notes: as for B3
B14: Phage-3344 (peptide)
peptide: MERLCMPSWMCGGF
modifications: cysteine pairing not given here; also: fused to pIII of bacteriophage
notes: as for B1
B15: Phage-3357 (Peptide-180 library peptide) (peptide)
peptide: DTIQCKPAWMCVGF
notes: as for B3
B16: Phage-3359 (Peptide-180 library peptide) (peptide)
peptide: VESWCIPAWMCTGF
notes: as for B3
B17: Phage-3358 (Peptide-180 library peptide) (peptide)
peptide: VIIKCEPRWMCEGF
notes: as for B3
B18: Phage-3362 (Peptide-180 library peptide) (peptide)
peptide: HDLSCVPRWMCDGF
notes: as for B3
B19: Phage-3353 (Peptide-180 library peptide) (peptide)
peptide: SEHFCRPAWMCTGF
notes: as for B3
B20: Phage-3355 (Peptide-180 library peptide) (peptide)
peptide: IGLLCAPKWMCEGF
modifications: cysteine pairing not given here; also: fused to pIII of bacteriophage
notes: as for B3
B21: Phage-3343 (peptide)
peptide: TAPMCKPEWMCVAL
modifications: cysteine pairing not given here; also: fused to pIII of bacteriophage
notes: as for B1
B22: Phage-3340 (peptide)
peptide: MHFHCKPAWMCQGL
modifications: cysteine pairing not given here; also: fused to pIII of bacteriophage
notes: as for B1
B23: Phage-3354 (Peptide-180 library peptide) (peptide)
peptide: GQMYCKPSWMCNGF
notes: as for B3
B24: Phage-3338 (peptide)
peptide: VDALCRPSWMCIGF
modifications: cysteine pairing not given here; also: fused to pIII of bacteriophage
notes: as for B1
B25: Phage-3347 (peptide)
peptide: QSPMCKPDWMCLGF
modifications: cysteine pairing not given here; also: fused to pIII of bacteriophage
notes: as for B1
B26: Phage-3350 (Peptide-180 library peptide) (peptide)
peptide: GDIRCVPEWMCSGL
modifications: cysteine pairing not given here; also: fused to pIII of bacteriophage
notes: as for B3
B27: Phage-3342 (peptide)
peptide: MEPVCKPKWMCQGF
modifications: cysteine pairing not given here; also: fused to pIII of bacteriophage
notes: as for B1
B28: Phage-3361 (Peptide-180 library peptide) (peptide)
peptide: WMPYCVPHWMCDGF
notes: as for B3

Columns and labels:
[1] = molecular target: T1, PSMA Fab (006 PSMA Fab) (biotinylated (site not stated)); assay: clonal phage ELISA on biotinylated PSMA Fab captured on neutravidin, anti-M13 HRP detection, no PSMA
T1 construct: In the clonal phage ELISA the biotinylated PSMA Fab was captured on neutravidin coated plates; also called Anti-PSMA Fab

[2] = molecular target: T1, PSMA Fab (006 PSMA Fab); assay: clonal phage ELISA on captured PSMA Fab pre-incubated with PSMA antigen as competitor;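 further: crude clonal phage supernatants added to wells without washing away the PSMA competitor, bound phage detected by HRP-conjugated anti-M13 antibody, reference wells received blocking buffer only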
Procedure: (§1) Clonal phage were harvested as crude supernatants and screened via standard ELISAs. […] Prior to the addition of clonal phage. wells were incubated with blocking buffer and PSMA antigen or blocking buffer alone. Without washing or aspirating, clonal phage supernatants were then added to the wells and incubated for a short time. Wells were then washed followed by detection of bound phage using a horse radish conjugated anti-M13 antibody.

[3] = molecular target: T2, PSMA Fab (biotinylated (site not stated)); assay: clonal phage ELISA on biotinylated PSMA Fab captured on neutravidin plates, blocking buffer alone; anti-M13 HRP detection
T2 construct: Biotinylated PSMA Fab captured on neutravidin coated plates in the phage ELISA; also called Anti-PSMA Fab; 006 PSMA Fab

[4] = molecular target: T2, PSMA Fab; assay: clonal phage ELISA on captured PSMA Fab, wells pre-incubated with PSMA antigen as competitor; anti-M13 HRP detection
Procedure: as §1

[5] = molecular target: T3, PSMA Fab (006 PSMA Fab) (biotinylated (site not stated)); assay: clonal phage ELISA on biotinylated PSMA Fab captured on neutravidin, anti-M13-HRP detection;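 further: crude clonal phage supernatants added to wells preincubated with PSMA antigen in blocking buffer or with blocking buffer alone, brief binding period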
T3 construct: also called Anti-PSMA Fab; anti-PSMA Fab

[6] = molecular target: T3, PSMA Fab (006 PSMA Fab); assay: clonal phage ELISA on captured PSMA Fab, wells pre-incubated with PSMA antigen as competitor
Procedure: as §1

[7] = molecular target: T4, PSMA Fab (006 PSMA Fab); assay: phage ELISA: clonal phage supernatant on biotinylated PSMA Fab captured on neutravidin plate, wells pre-incubated with PSMA antigen as competitor; anti-M13 HRP detection
T4 construct: also called Anti-PSMA Fab
Procedure: as §1

[8] = molecular target: T4, PSMA Fab (006 PSMA Fab); assay: phage ELISA: clonal phage supernatant on biotinylated PSMA Fab captured on neutravidin plate, blocking buffer alone; anti-M13 HRP detection;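 further: crude clonal phage supernatants added to wells preincubated with blocking buffer, incubated briefly, bound phage detected with a horseradish-conjugated anti-M13 antibody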
Procedure: as §1

Binder	Phage binding ELISA signal, Anti-PSMA Fab [5]	phage binding ELISA signal (Anti-PSMA Fab with PSMA) [6]	phage binding ELISA signal [7]	phage binding ELISA signal [8]	other results
FEMLCRPIWMCTGF [Phage-3365]					Phage binding ELISA signal, Anti-PSMA Fab [1]: 1.82; Phage binding ELISA signal, Anti-PSMA Fab with PSMA antigen [2]: 0.14
EGRYCVPEWMCQGF [Phage-3335]					phage binding ELISA signal [3]: 1.84; phage binding ELISA signal [4]: 0.0864
QLPMCVPRWMCDGW [Phage-3366]					Phage binding ELISA signal, Anti-PSMA Fab [1]: 1.82; Phage binding ELISA signal, Anti-PSMA Fab with PSMA antigen [2]: 0.129
B1	1.83	0.0791			
B2	1.84	0.078			
B3			0.0748	1.82	
B4	1.84	0.0649			
B5			0.07	1.82	
B6	1.83	0.0684			
B7	1.83	0.0971			
B8	1.82	0.0675			
B9	1.83	0.0808			
B10	1.82	0.078			
B11			0.0972	1.82	
B12			0.0934	1.82	
B13			0.0901	1.82	
B14	1.83	0.0822			

Binder	Phage binding ELISA signal, Anti-PSMA Fab [5]	phage binding ELISA signal (Anti-PSMA Fab with PSMA) [6]	phage binding ELISA signal [7]	phage binding ELISA signal [8]	other results
ESNFCVPAWMCTGF (cysteine pairing not given here; also: fused to pIII of bacteriophage) [Phage-3364]					Phage binding ELISA signal, Anti-PSMA Fab [1]: 1.82; Phage binding ELISA signal, Anti-PSMA Fab with PSMA antigen [2]: 0.073
B15			0.102	1.82	
B16			0.0794	1.82	
DHVMCKPKWMCEGF [Phage-3367]					Phage binding ELISA signal, Anti-PSMA Fab [1]: 1.82; Phage binding ELISA signal, Anti-PSMA Fab with PSMA antigen [2]: 0.0947
B17			0.068	1.82	
B18			0.0671	1.82	
B19			0.0801	1.82	
B20			0.0676	1.82	
B21	1.83	0.0952			
B22	1.83	0.0998			
B23			0.0788	1.82	
B24	1.84	0.0688			
B25	1.83	0.0728			
B26			0.0749	1.82	
B27	1.83	0.07			
B28			0.119	1.82	
